Measurements reported in patent US20260167721A1 (ABLEXIS, published 2026).

Legend:
[1] = target: T1, CD3 on human donor PBMC / Pan T effector cells (human, UniProt P07766 23-207; P09693 23-182; P04234 22-171; P20963 22-164); assay: cell-based or functional assay
[2] = target: T1, CD3 on human donor PBMC / Pan T …; assay: cell-based or functional assay; remark: listed apart in the source

T1 sequence (P07766 23-207, chain 1 of 4): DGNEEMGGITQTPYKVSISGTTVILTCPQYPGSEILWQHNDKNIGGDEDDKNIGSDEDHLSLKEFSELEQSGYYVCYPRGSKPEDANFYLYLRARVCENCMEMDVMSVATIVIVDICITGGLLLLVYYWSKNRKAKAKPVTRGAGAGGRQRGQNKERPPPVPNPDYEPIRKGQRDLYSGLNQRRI
T1 sequence (P09693 23-182, chain 2 of 4): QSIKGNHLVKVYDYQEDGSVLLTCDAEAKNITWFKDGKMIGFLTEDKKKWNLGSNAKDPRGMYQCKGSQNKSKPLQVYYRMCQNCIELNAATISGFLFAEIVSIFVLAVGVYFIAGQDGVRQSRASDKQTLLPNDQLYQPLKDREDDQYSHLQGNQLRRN
T1 sequence (P04234 22-171, chain 3 of 4): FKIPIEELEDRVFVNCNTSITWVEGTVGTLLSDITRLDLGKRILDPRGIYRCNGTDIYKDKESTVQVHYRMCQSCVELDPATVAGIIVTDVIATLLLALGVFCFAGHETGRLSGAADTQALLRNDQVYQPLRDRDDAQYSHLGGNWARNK
T1 sequence (P20963 22-164, chain 4 of 4): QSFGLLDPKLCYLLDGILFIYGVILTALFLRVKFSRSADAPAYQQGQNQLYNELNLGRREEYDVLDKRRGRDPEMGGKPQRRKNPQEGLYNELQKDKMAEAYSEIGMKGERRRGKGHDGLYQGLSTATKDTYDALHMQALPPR

| Binder | Cytokine Release Assay (TNFα) Donor 0 EC50 [1] | Cytokine Release Assay (TNFα) Donor 0 gMFI max [1] | Cytokine Release Assay (TNFα) Donor 1 gMFI max [1] | Cytokine Release Assay (TNFα) Donor 2 EC50 [1] | Cytokine Release Assay (TNFα) Donor 2 gMFI max [1] | Cytokine Release Assay (TNFα) Donor 3 EC50 [1] | Cytokine Release Assay (TNFα) Donor 3 gMFI max [1] | Cytokine Release Assay (IL2) Donor 0 EC50 [2] | Cytokine Release Assay (IL2) Donor 0 gMFI max [2] | Cytokine Release Assay (IL2) Donor 1 EC50 [2] | Cytokine Release Assay (IL2) Donor 1 gMFI max [2] | Cytokine Release Assay (IL2) Donor 2 EC50 [2] | Cytokine Release Assay (IL2) Donor 2 gMFI max [2] | Cytokine Release Assay (IL2) Donor 3 EC50 [2] | Cytokine Release Assay (IL2) Donor 3 gMFI max [2] | Cytokine Release Assay (TNFα) Donor 1 EC50 [1] |
| --- | --- | --- | --- | --- | --- | --- | --- | --- | --- | --- | --- | --- | --- | --- | --- | --- |
| CD3 × CD33-BspAb45 (bispecific antibody) chain 1: EVQLVESGGGLVQPGGSLRLSCAASGFTFSRYSMNWVRQAPGKCLEWVSYISSSSSSIYYADSVKGRFTISRDNAKNSLYLQMNSLRDEDTAVYYCARDRRATLDYWGQGTLVTVSSGGGGSGGGGSGGGGSGGGGSNFMLTQPHSVSESPGKTVTISCTRSSGSIASNYVQWYQQRPGSSPTTVIYEDNQRPSGVPDRFSGSIDSSSNSASLTISGLKTEDEADYYCQSYDSSNHVFGCGTKLTVLDKTHTCPPCPAPEFEGGPSVFLFPPKPKDTLMISRTPEVTCVVVDVSHEDPEVKFNWYVDGVEVHNAKTKPREEQYNSTYRVVSVLTVLHQDWLNGKEYKCKVSNKALPASIEKTISKAKGQPREPQVYTLPPCREEMTKNQVSLWCLVKGFYPSDIAVEWESNGQPENNYKTTPPVLDSDGSFFLYSKLTVDKSRWQQGNVFSCSVMHEALHNHYTQKSLSLSPGK chain 2: EVQLVQSGAEVKKPGSSVKVSCKASGYTITDSNIHWVRQAPGQSLEWIGYIYPYNGGTDYNQKFKNRATLTVDNPTNTAYMELSSLRSEDTAFYYCVNGNPWLAYWGQGTLVTVSSASTKGPSVFPLAPSSKSTSGGTAALGCLVKDYFPEPVTVSWNSGALTSGVHTFPAVLQSSGLYSLSSVVTVPSSSLGTQTYICNVNHKPSNTKVDKRVEPKSCDKTHTCPPCPAPEFEGGPSVFLFPPKPKDTLMISRTPEVTCVVVDVSHEDPEVKFNWYVDGVEVHNAKTKPREEQYNSTYRVVSVLTVLHQDWLNGKEYKCKVSNKALPASIEKTISKAKGQPREPQVCTLPPSREEMTKNQVSLSCAVKGFYPSDIAVEWESNGQPENNYKTTPPVLDSDGSFFLVSKLTVDKSRWQQGNVFSCSVMHEALHNRFTQKSLSLSPGK chain 3: DIQLTQSPSTLSASVGDRVTITCRASESLDNYGIRFLTWFQQKPGKAPKLLMYAASNQGSGVPSRFSGSGSGTEFTLTISSLQPDDFATYYCQQTKEVPWSFGQGTKVEVKRTVAAPSVFIFPPSDEQLKSGTASVVCLLNNFYPREAKVQWKVDNALQSGNSQESVTEQDSKDSTYSLSSTLTLSKADYEKHKVYACEVTHQGLSSPVTKSFNRGEC | 0.0919 nM | 71300 gMFI | 4850 gMFI | 0.0334 nM | 12100 gMFI | 0.0216 nM | 31800 gMFI | 0.0539 nM | 50900 gMFI | 0.0869 nM | 22200 gMFI | 0.0204 nM | 26200 gMFI | 0.0205 nM | 67900 gMFI | – |
| CD3 × CD33-BspAb51 (bispecific antibody) chain 1: not shown chain 2: EVQLVQSGAEVKKPGSSVKVSCKASGYTITDSNIHWVRQAPGQSLEWIGYIYPYNGGTDYNQKFKNRATLTVDNPTNTAYMELSSLRSEDTAFYYCVNGNPWLAYWGQGTLVTVSSASTKGPSVFPLAPSSKSTSGGTAALGCLVKDYFPEPVTVSWNSGALTSGVHTFPAVLQSSGLYSLSSVVTVPSSSLGTQTYICNVNHKPSNTKVDKRVEPKSCDKTHTCPPCPAPEFEGGPSVFLFPPKPKDTLMISRTPEVTCVVVDVSHEDPEVKFNWYVDGVEVHNAKTKPREEQYNSTYRVVSVLTVLHQDWLNGKEYKCKVSNKALPASIEKTISKAKGQPREPQVCTLPPSREEMTKNQVSLSCAVKGFYPSDIAVEWESNGQPENNYKTTPPVLDSDGSFFLVSKLTVDKSRWQQGNVFSCSVMHEALHNRFTQKSLSLSPGK chain 3: DIQLTQSPSTLSASVGDRVTITCRASESLDNYGIRFLTWFQQKPGKAPKLLMYAASNQGSGVPSRFSGSGSGTEFTLTISSLQPDDFATYYCQQTKEVPWSFGQGTKVEVKRTVAAPSVFIFPPSDEQLKSGTASVVCLLNNFYPREAKVQWKVDNALQSGNSQESVTEQDSKDSTYSLSSTLTLSKADYEKHKVYACEVTHQGLSSPVTKSFNRGEC | 0.203 nM | 51700 gMFI | 6200 gMFI | 0.18 nM | 14800 gMFI | 0.166 nM | 36200 gMFI | 0.181 nM | 105000 gMFI | 0.529 nM | 37800 gMFI | 0.205 nM | 27300 gMFI | 0.0995 nM | 156000 gMFI | 0.535 nM |

Continued, values first:

| Cytokine Release Assay (TNFα) Donor 0 EC50 [1] | Cytokine Release Assay (TNFα) Donor 0 gMFI max [1] | Cytokine Release Assay (TNFα) Donor 1 gMFI max [1] | Cytokine Release Assay (TNFα) Donor 2 EC50 [1] | Cytokine Release Assay (TNFα) Donor 2 gMFI max [1] | Cytokine Release Assay (TNFα) Donor 3 EC50 [1] | Cytokine Release Assay (TNFα) Donor 3 gMFI max [1] | Cytokine Release Assay (IL2) Donor 0 EC50 [2] | Cytokine Release Assay (IL2) Donor 0 gMFI max [2] | Cytokine Release Assay (IL2) Donor 1 EC50 [2] | Cytokine Release Assay (IL2) Donor 1 gMFI max [2] | Cytokine Release Assay (IL2) Donor 2 EC50 [2] | Cytokine Release Assay (IL2) Donor 2 gMFI max [2] | Cytokine Release Assay (IL2) Donor 3 EC50 [2] | Cytokine Release Assay (IL2) Donor 3 gMFI max [2] | Cytokine Release Assay (TNFα) Donor 1 EC50 [1] | Binder |
| --- | --- | --- | --- | --- | --- | --- | --- | --- | --- | --- | --- | --- | --- | --- | --- | --- |
| 20.1 nM | 55800 gMFI | 5360 gMFI | 28.1 nM | 14000 gMFI | 10.8 nM | 28600 gMFI | 44.9 nM | 84700 gMFI | 40.1 nM | 31100 gMFI | 38.7 nM | 33700 gMFI | 49.8 nM | 95000 gMFI | – | CD3 × CD33-BspAb66 (bispecific antibody, human IgG1, kappa) EVQLVESGGGLVQPGRSLRLSCAASGFTFDDYAMHWVRQAPGKGLEWVSGISWNSGSIGYADSVKGRFTISRDNAKNSLYLQMNSLRAEDTALYYCAKDSRGYGDYRLGGAYWGQGTLVTVSSGGGGSGGGGSGGGGSGGGGSEIVMTQSPATLSVSPGERATLSCRASQSVSSNLAWYQQKPGQAPRLLIYGASTRATGIPARFSGSGSGTEFTLTISSLQSEDFAVYYCQQYNNWPWTFGQGTKVEIKTSGPGGPDKTHTCPPCPAPEFEGGPSVFLFPPKPKDTLMISRTPEVTCVVVDVSHEDPEVKFNWYVDGVEVHNAKTKPREEQYNSTYRVVSVLTVLHQDWLNGKEYKCKVSNKALPASIEKTISKAKGQPREPQVYTLPPCREEMTKNQVSLWCLVKGFYPSDIAVEWESNGQPENNYKTTPPVLDSDGSFFLYSKLTVDKSRWQQGNVFSCSVMHEALHNHYTQKSLSLSPGK heavy: EVQLVQSGAEVKKPGSSVKVSCKASGYTITDSNIHWVRQAPGQSLEWIGYIYPYNGGTDYNQKFKNRATLTVDNPTNTAYMELSSLRSEDTAFYYCVNGNPWLAYWGQGTLVTVSSASTKGPSVFPLAPSSKSTSGGTAALGCLVKDYFPEPVTVSWNSGALTSGVHTFPAVLQSSGLYSLSSVVTVPSSSLGTQTYICNVNHKPSNTKVDKRVEPKSCDKTHTCPPCPAPEFEGGPSVFLFPPKPKDTLMISRTPEVTCVVVDVSHEDPEVKFNWYVDGVEVHNAKTKPREEQYNSTYRVVSVLTVLHQDWLNGKEYKCKVSNKALPASIEKTISKAKGQPREPQVCTLPPSREEMTKNQVSLSCAVKGFYPSDIAVEWESNGQPENNYKTTPPVLDSDGSFFLVSKLTVDKSRWQQGNVFSCSVMHEALHNRFTQKSLSLSPGK light: DIQLTQSPSTLSASVGDRVTITCRASESLDNYGIRFLTWFQQKPGKAPKLLMYAASNQGSGVPSRFSGSGSGTEFTLTISSLQPDDFATYYCQQTKEVPWSFGQGTKVEVKRTVAAPSVFIFPPSDEQLKSGTASVVCLLNNFYPREAKVQWKVDNALQSGNSQESVTEQDSKDSTYSLSSTLTLSKADYEKHKVYACEVTHQGLSSPVTKSFNRGEC |
| – | 5510 gMFI | 4510 gMFI | 1.35 nM | 4800 gMFI | 18.6 nM | 5310 gMFI | 141 nM | 17200 gMFI | 10.7 nM | 14500 gMFI | – | 12800 gMFI | 3.87 nM | 18100 gMFI | – | CD3 × CD33-BspAb52 (bispecific antibody) chain 1: not shown chain 2: EVQLVQSGAEVKKPGSSVKVSCKASGYTITDSNIHWVRQAPGQSLEWIGYIYPYNGGTDYNQKFKNRATLTVDNPTNTAYMELSSLRSEDTAFYYCVNGNPWLAYWGQGTLVTVSSASTKGPSVFPLAPSSKSTSGGTAALGCLVKDYFPEPVTVSWNSGALTSGVHTFPAVLQSSGLYSLSSVVTVPSSSLGTQTYICNVNHKPSNTKVDKRVEPKSCDKTHTCPPCPAPEFEGGPSVFLFPPKPKDTLMISRTPEVTCVVVDVSHEDPEVKFNWYVDGVEVHNAKTKPREEQYNSTYRVVSVLTVLHQDWLNGKEYKCKVSNKALPASIEKTISKAKGQPREPQVCTLPPSREEMTKNQVSLSCAVKGFYPSDIAVEWESNGQPENNYKTTPPVLDSDGSFFLVSKLTVDKSRWQQGNVFSCSVMHEALHNRFTQKSLSLSPGK chain 3: DIQLTQSPSTLSASVGDRVTITCRASESLDNYGIRFLTWFQQKPGKAPKLLMYAASNQGSGVPSRFSGSGSGTEFTLTISSLQPDDFATYYCQQTKEVPWSFGQGTKVEVKRTVAAPSVFIFPPSDEQLKSGTASVVCLLNNFYPREAKVQWKVDNALQSGNSQESVTEQDSKDSTYSLSSTLTLSKADYEKHKVYACEVTHQGLSSPVTKSFNRGEC |
